From IntAct's records for PubMed 16107882 come the findings set out here.

The labels stand for the following.
B1: Bud site selection protein 14 (Saccharomyces cerevisiae), P27637 (parent)
chain: MSNKEEHVDETSASGVKEVSSIAARHDNGYAPSLITSTSGMDSFQSHALLNDPTLIEDYSDIINNRPTSGSKLTLGNEDSESMGGSVVVTPTSNKSSPFNSKLNILSNAAEKGHDVLRNRDDDKELEEENVEKHMHSNSKRDQRHYKENSSELPDSYDYSDSEFEDNLERRLQEIETDSVDSADKDEVHFSVNNTMNPDVDDFSDGLKYAISEDEDEEENYSDDDDFDRKFQDSGFQGEKDDLEEENDDYQPLSPPRELDPDKLYALYAFNGHDSSHCQLGQDEPCILLNDQDAYWWLVKRITDGKIGFAPAEILETFPERLARLNCWKNENMSSQSVASSDSKDDSISSGNKNQSDAESIIPTPALNGYGKGNKSVSFNDVVGYADRFIDDAIEDTSLDSNDDGGEGNGQSYDDDVDNDKETKVTHRDEYTEAKLNFGKFQDDDTSDVVSDVSFSTSLNTPLNVKKVRRQDNKNESEPKTSSSKDREDDYNANRYVGQEKSEPVDSDYDTDLKKVFEAPRMPFANGMAKSDSQNSLSTIGEFSPSSSEWTNESPSTPIVEESSSIPSSRAIKDISQYIHAKSKIEETTNVENTEGQIQASLGSSGGMANQTDAEQPKEELEKHHSTPEEEKQSTLSLHSSSEEDFYMDEQRAVSSASINSSLSGSRALSNTNMSDPASKPNSLVQHLYAPVFDRMDVLMKQLDEIIRK

Variants of B1 are the subject of the first test. The note with it: with pp12_yeast GLC7, P32598.
pp12_yeast GLC7, P32598, sequence (P32598 whole entry): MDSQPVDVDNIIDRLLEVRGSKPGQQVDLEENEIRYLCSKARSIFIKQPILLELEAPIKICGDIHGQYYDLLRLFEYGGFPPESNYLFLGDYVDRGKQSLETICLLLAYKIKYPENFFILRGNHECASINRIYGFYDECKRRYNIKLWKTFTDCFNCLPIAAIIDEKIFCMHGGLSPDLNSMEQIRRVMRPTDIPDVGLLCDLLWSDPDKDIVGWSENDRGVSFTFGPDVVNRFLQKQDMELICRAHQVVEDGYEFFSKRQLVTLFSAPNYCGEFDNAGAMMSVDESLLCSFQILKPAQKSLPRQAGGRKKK
Consider V377A, for which the “effect of a mutation on the interaction” value was “decreasing interaction”.

Consider F379A, for which the “effect of a mutation on the interaction” value is on record as “decreasing interaction”.

A further test covers variants of B1. The note with it: with bem2_yeast BEM2, P39960.
bem2_yeast BEM2, P39960, sequence (P39960 whole entry): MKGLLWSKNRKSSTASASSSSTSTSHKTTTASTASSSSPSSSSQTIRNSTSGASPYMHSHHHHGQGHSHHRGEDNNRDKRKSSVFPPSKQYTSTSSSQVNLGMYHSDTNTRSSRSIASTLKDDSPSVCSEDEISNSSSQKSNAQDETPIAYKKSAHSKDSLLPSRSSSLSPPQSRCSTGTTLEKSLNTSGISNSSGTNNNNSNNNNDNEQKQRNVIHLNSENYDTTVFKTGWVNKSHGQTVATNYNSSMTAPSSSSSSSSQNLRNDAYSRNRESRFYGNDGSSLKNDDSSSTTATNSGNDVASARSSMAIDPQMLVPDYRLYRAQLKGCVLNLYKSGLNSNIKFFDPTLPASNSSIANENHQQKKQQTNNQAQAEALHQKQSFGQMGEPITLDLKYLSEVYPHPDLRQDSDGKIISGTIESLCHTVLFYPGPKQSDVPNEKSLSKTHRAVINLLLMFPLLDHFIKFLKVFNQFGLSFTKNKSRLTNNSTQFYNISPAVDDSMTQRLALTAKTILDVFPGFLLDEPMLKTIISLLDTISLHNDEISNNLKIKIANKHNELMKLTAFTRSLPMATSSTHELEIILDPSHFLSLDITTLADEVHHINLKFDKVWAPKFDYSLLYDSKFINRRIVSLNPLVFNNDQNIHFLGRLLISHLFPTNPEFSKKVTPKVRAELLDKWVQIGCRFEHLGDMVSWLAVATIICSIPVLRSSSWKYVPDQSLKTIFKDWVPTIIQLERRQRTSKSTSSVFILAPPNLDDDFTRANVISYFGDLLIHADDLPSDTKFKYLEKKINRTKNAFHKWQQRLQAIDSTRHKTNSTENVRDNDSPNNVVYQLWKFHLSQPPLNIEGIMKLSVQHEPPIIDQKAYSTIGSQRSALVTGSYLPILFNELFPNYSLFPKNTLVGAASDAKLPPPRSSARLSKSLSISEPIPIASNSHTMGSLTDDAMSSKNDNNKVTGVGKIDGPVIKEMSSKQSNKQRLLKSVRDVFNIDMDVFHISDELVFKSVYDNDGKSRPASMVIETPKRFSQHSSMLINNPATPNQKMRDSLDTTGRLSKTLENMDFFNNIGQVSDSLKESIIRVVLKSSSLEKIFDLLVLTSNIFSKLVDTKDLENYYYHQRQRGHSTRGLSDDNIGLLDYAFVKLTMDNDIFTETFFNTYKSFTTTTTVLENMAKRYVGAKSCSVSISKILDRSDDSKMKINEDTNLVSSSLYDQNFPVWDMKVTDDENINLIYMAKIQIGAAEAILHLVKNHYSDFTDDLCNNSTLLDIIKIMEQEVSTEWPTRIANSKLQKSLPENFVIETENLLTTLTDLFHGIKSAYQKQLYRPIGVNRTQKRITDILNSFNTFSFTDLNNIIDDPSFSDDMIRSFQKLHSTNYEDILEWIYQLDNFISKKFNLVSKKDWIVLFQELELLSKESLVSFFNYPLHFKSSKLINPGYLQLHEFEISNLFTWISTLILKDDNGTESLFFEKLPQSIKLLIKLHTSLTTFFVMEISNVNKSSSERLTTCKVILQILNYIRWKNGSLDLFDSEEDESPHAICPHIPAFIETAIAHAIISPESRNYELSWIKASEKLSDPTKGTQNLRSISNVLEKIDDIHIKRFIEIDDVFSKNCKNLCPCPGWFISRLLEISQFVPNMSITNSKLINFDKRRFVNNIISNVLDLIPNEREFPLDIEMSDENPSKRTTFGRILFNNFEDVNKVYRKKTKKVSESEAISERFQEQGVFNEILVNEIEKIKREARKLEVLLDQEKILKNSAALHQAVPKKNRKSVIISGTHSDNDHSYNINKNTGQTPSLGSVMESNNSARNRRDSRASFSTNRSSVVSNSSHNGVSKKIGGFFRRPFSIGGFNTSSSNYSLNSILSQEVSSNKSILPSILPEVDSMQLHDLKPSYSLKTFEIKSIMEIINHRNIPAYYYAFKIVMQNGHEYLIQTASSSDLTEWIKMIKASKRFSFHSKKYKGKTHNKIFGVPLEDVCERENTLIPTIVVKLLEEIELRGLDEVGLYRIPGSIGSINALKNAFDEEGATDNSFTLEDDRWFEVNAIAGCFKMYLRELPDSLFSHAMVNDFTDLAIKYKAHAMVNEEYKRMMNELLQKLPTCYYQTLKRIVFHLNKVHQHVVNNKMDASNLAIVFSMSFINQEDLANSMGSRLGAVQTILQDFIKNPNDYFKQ
For F379A, the “effect of a mutation on the interaction” value is given as “decreasing interaction”.
